Experimental data: patent publication US20050043234A1 (published 2005)
“And” between values parts separate entries of the source, which are not always exact repeats. Identical values can stand only once.

B1: FGFR3α-IIIc/Fc (Fc fusion, not shown: a dimerising Fc or GST; small tags and cut ends)
chain: ESLGTEQRVVGRAAEVPGPEPGQQEQLVFGSGDAVELSCPPPGGGPMGPTVWVKDGTGLVPSERVLVGPQRLQVLNASHEDSGAYSCRQRLTQRVLCHFSVRVTDAPSSGDDEDGEDEAEDTGVDTGAPYWTRPERMDKKLLAVPAANTVRFRCPAAGNPTPSISWLKNGREFRGEHRIGGIKLRHQQWSLVMESVVPSDRGNYTCVVENKFGSIRQTYTLDVLERSPHRPILQAGLPANQTAVLGSDVEFHCKVYSDAQPHIQWLKHVEVNGSKVGPDGTPYVTVLKTAGANTTDKELEVLSLHNVTFEDAGEYTCLAGNSIGFSHHSAWLVVLPAEEELVEADEAGSVYAG
B2: FGFR1α-IIIc/Fc (Fc fusion, not shown: a dimerising Fc or GST; small tags and cut ends)
chain: RPSPTLPEQAQPWGAPVEVESFLVHPGDLLQLRCRLRDDVQSINWLRDGVQLAESNRTRITGEEVEVQDSVPADSGLYACVTSSPSGSDTTYFSVNVSDALPSSEDDDDDDDSSSEEKETDNTKPNRMPVAPYWTSPEKMEKKLHAVPAAKTVKFKCPSSGTPNPTLRWLKNGKEFKPDHRIGGYKVRYATWSIIMDSVVPSDKGNYTCIVENEYGSINHTYQLDVVERSPHRPILQAGLPANKTVALGSNVEFMCKVYSDPQPHIQWLKHIEVNGSKIGPDNLPYVQILKTAGVNTTDKEMEVLHLRNVSFEDAGEYTCLAGNSIGLSHHSAWLTVLEALEERPAVMTSPLYLE
B3: zFGF5 (ligand)
chain: EENVDFRIHVENQTRARDDVSRKQLRLYQLYSRTSGKHIQVLGRRISARGEDGDKYAQLLVETDTFGSQVRIKGKETEFYLCMNRKGKLVGKPDGTSKECVFIEKVLENNYTALMSAKYSGWYVGFTKKGRPRKGPKTRENQQDVHFMKRYPKGQPELQKPFKYTTVTKRSRRIRPTHPA

Legend:
Experiment in all cases: cell-based or functional assay
zFGF5 = target: B3
FGFR2α-IIIc [1] = target: FGFR2α-IIIc
FGFR3α-IIIc [2] = target: FGFR3α-IIIc
FGFR1α-IIIb = target: FGFR1α-IIIb
FGFR1α-IIIc = target: FGFR1α-IIIc
FGFR2α-IIIb = target: FGFR2α-IIIb
FGFR2α-IIIc [3] = target: FGFR2α-IIIc; remark: listed apart in the source
FGFR3α-IIIb = target: FGFR3α-IIIb
FGFR3α-IIIc [4] = target: FGFR3α-IIIc; remark: listed apart in the source

Binder: B1
Cell Proliferation (percent of control), BAF3/FGFR3α-IIIc cells with zFGF5, soluble receptor at 0 fold-excess (zFGF5): 100 percent of control
Cell Proliferation (percent of control), BAF3/FGFR3α-IIIc cells with zFGF5, soluble receptor at 0.8 fold-excess (zFGF5): 85 percent of control
Cell Proliferation (percent of control), BAF3/FGFR3α-IIIc cells with zFGF5, soluble receptor at 1.6 fold-excess (zFGF5): 66 percent of control
Cell Proliferation (percent of control), BAF3/FGFR3α-IIIc cells with zFGF5, soluble receptor at 3.2 fold-excess (zFGF5): 37 percent of control
Cell Proliferation (percent of control), BAF3/FGFR3α-IIIc cells with zFGF5, soluble receptor at 6.3 fold-excess (zFGF5): 5 percent of control
Cell Proliferation (percent of control), BAF3/FGFR3α-IIIc cells with zFGF5, soluble receptor at 12.5 fold-excess (zFGF5): 1 percent of control
Cell Proliferation (percent of control), BAF3/FGFR3α-IIIc cells with zFGF5, soluble receptor at 25 fold-excess (zFGF5): 0.2 percent of control
Cell Proliferation (percent of control), BAF3/FGFR3α-IIIc cells with zFGF5, soluble receptor at 50 fold-excess (zFGF5): 0 percent of control
Cell Proliferation (percent of control), BAF3/FGFR3α-IIIc cells with zFGF5, soluble receptor at 100 fold-excess (zFGF5): 0 percent of control

Binder: B2
Cell Proliferation (percent of control), BAF3/FGFR3α-IIIc cells with zFGF5, soluble receptor at 0 fold-excess (zFGF5): 100 percent of control
Cell Proliferation (percent of control), BAF3/FGFR3α-IIIc cells with zFGF5, soluble receptor at 7.5 fold-excess (zFGF5): 92 percent of control
Cell Proliferation (percent of control), BAF3/FGFR3α-IIIc cells with zFGF5, soluble receptor at 15.4 fold-excess (zFGF5): 96 percent of control
Cell Proliferation (percent of control), BAF3/FGFR3α-IIIc cells with zFGF5, soluble receptor at 31 fold-excess (zFGF5): 99 percent of control
Cell Proliferation (percent of control), BAF3/FGFR3α-IIIc cells with zFGF5, soluble receptor at 62.5 fold-excess (zFGF5): 104 percent of control
Cell Proliferation (percent of control), BAF3/FGFR3α-IIIc cells with zFGF5, soluble receptor at 125 fold-excess (zFGF5): 101 percent of control
Cell Proliferation (percent of control), BAF3/FGFR3α-IIIc cells with zFGF5, soluble receptor at 250 fold-excess (zFGF5): 100 percent of control
Cell Proliferation (percent of control), BAF3/FGFR3α-IIIc cells with zFGF5, soluble receptor at 500 fold-excess (zFGF5): 102 percent of control
Cell Proliferation (percent of control), BAF3/FGFR3α-IIIc cells with zFGF5, soluble receptor at 1000 fold-excess (zFGF5): 92.3 percent of control

Binder: B3
EC50 of cell proliferation response (FGFR2α-IIIc [1]): ~10 ng/mL and ~20 ng/mL
EC50 of cell proliferation response (FGFR3α-IIIc [2]): ~1 ng/mL and ~2 ng/mL
Alamar Blue Units (cell proliferation), zFGF5 at 1.6 ng/ml (FGFR1α-IIIb): 0 Alamar Blue Units
Alamar Blue Units (cell proliferation), zFGF5 at 3.1 ng/ml (FGFR1α-IIIb): 1.7 Alamar Blue Units
Alamar Blue Units (cell proliferation), zFGF5 at 6.2 ng/ml (FGFR1α-IIIb): 1.3 Alamar Blue Units
Alamar Blue Units (cell proliferation), zFGF5 at 12.5 ng/ml (FGFR1α-IIIb): 0 Alamar Blue Units
Alamar Blue Units (cell proliferation), zFGF5 at 25 ng/ml (FGFR1α-IIIb): 10.9 Alamar Blue Units
Alamar Blue Units (cell proliferation), zFGF5 at 50 ng/ml (FGFR1α-IIIb): 0 Alamar Blue Units
Alamar Blue Units (cell proliferation), zFGF5 at 100 ng/ml (FGFR1α-IIIb): 0 Alamar Blue Units
Alamar Blue Units (cell proliferation), zFGF5 at 200 ng/ml (FGFR1α-IIIb): 0 Alamar Blue Units
Alamar Blue Units (cell proliferation), zFGF5 at 1.6 ng/ml (FGFR1α-IIIc): 2.6 Alamar Blue Units
Alamar Blue Units (cell proliferation), zFGF5 at 3.1 ng/ml (FGFR1α-IIIc): 4.2 Alamar Blue Units
Alamar Blue Units (cell proliferation), zFGF5 at 6.2 ng/ml (FGFR1α-IIIc): 14.2 Alamar Blue Units
Alamar Blue Units (cell proliferation), zFGF5 at 12.5 ng/ml (FGFR1α-IIIc): 29.9 Alamar Blue Units
Alamar Blue Units (cell proliferation), zFGF5 at 25 ng/ml (FGFR1α-IIIc): 86 Alamar Blue Units
Alamar Blue Units (cell proliferation), zFGF5 at 50 ng/ml (FGFR1α-IIIc): 224 Alamar Blue Units
Alamar Blue Units (cell proliferation), zFGF5 at 100 ng/ml (FGFR1α-IIIc): 488 Alamar Blue Units
Alamar Blue Units (cell proliferation), zFGF5 at 200 ng/ml (FGFR1α-IIIc): 912 Alamar Blue Units
Alamar Blue Units (cell proliferation), zFGF5 at 1.6 ng/ml (FGFR2α-IIIb): 0.2 Alamar Blue Units
Alamar Blue Units (cell proliferation), zFGF5 at 3.1 ng/ml (FGFR2α-IIIb): 0.06 Alamar Blue Units
Alamar Blue Units (cell proliferation), zFGF5 at 6.2 ng/ml (FGFR2α-IIIb): 0 Alamar Blue Units
Alamar Blue Units (cell proliferation), zFGF5 at 12.5 ng/ml (FGFR2α-IIIb): 0.4 Alamar Blue Units
Alamar Blue Units (cell proliferation), zFGF5 at 25 ng/ml (FGFR2α-IIIb): 0.2 Alamar Blue Units
Alamar Blue Units (cell proliferation), zFGF5 at 50 ng/ml (FGFR2α-IIIb): 0.5 Alamar Blue Units
Alamar Blue Units (cell proliferation), zFGF5 at 100 ng/ml (FGFR2α-IIIb): 1.3 Alamar Blue Units
Alamar Blue Units (cell proliferation), zFGF5 at 200 ng/ml (FGFR2α-IIIb): 1.3 Alamar Blue Units
Alamar Blue Units (cell proliferation), zFGF5 at 1.6 ng/ml (FGFR2α-IIIc [3]): 241 Alamar Blue Units
Alamar Blue Units (cell proliferation), zFGF5 at 3.1 ng/ml (FGFR2α-IIIc [3]): 480 Alamar Blue Units
Alamar Blue Units (cell proliferation), zFGF5 at 6.2 ng/ml (FGFR2α-IIIc [3]): 715 Alamar Blue Units
Alamar Blue Units (cell proliferation), zFGF5 at 12.5 ng/ml (FGFR2α-IIIc [3]): 977 Alamar Blue Units
Alamar Blue Units (cell proliferation), zFGF5 at 25 ng/ml (FGFR2α-IIIc [3]): 1310 Alamar Blue Units
Alamar Blue Units (cell proliferation), zFGF5 at 50 ng/ml (FGFR2α-IIIc [3]): 1520 Alamar Blue Units
Alamar Blue Units (cell proliferation), zFGF5 at 100 ng/ml (FGFR2α-IIIc [3]): 1720 Alamar Blue Units
Alamar Blue Units (cell proliferation), zFGF5 at 200 ng/ml (FGFR2α-IIIc [3]): 1790 Alamar Blue Units
Alamar Blue Units (cell proliferation), zFGF5 at 1.6 ng/ml (FGFR3α-IIIb): 0 Alamar Blue Units
Alamar Blue Units (cell proliferation), zFGF5 at 3.1 ng/ml (FGFR3α-IIIb): 0 Alamar Blue Units
Alamar Blue Units (cell proliferation), zFGF5 at 6.2 ng/ml (FGFR3α-IIIb): 0 Alamar Blue Units
Alamar Blue Units (cell proliferation), zFGF5 at 12.5 ng/ml (FGFR3α-IIIb): 0 Alamar Blue Units
Alamar Blue Units (cell proliferation), zFGF5 at 25 ng/ml (FGFR3α-IIIb): 1.4 Alamar Blue Units
Alamar Blue Units (cell proliferation), zFGF5 at 50 ng/ml (FGFR3α-IIIb): 19 Alamar Blue Units
Alamar Blue Units (cell proliferation), zFGF5 at 100 ng/ml (FGFR3α-IIIb): 189 Alamar Blue Units
Alamar Blue Units (cell proliferation), zFGF5 at 200 ng/ml (FGFR3α-IIIb): 472 Alamar Blue Units
Alamar Blue Units (cell proliferation), zFGF5 at 1.6 ng/ml (FGFR3α-IIIc [4]): 1400 Alamar Blue Units
Alamar Blue Units (cell proliferation), zFGF5 at 3.1 ng/ml (FGFR3α-IIIc [4]): 2000 Alamar Blue Units
Alamar Blue Units (cell proliferation), zFGF5 at 6.2 ng/ml (FGFR3α-IIIc [4]): 2580 Alamar Blue Units
Alamar Blue Units (cell proliferation), zFGF5 at 12.5 ng/ml (FGFR3α-IIIc [4]): 3200 Alamar Blue Units
Alamar Blue Units (cell proliferation), zFGF5 at 25 ng/ml (FGFR3α-IIIc [4]): 3760 Alamar Blue Units
Alamar Blue Units (cell proliferation), zFGF5 at 50 ng/ml (FGFR3α-IIIc [4]): 3960 Alamar Blue Units
Alamar Blue Units (cell proliferation), zFGF5 at 100 ng/ml (FGFR3α-IIIc [4]): 4120 Alamar Blue Units
Alamar Blue Units (cell proliferation), zFGF5 at 200 ng/ml (FGFR3α-IIIc [4]): 4200 Alamar Blue Units
